{"source": "patent US20230279091A1", "about": "(published 2023)", "binders": {"B1": {"name": "humanized scFv 16-22-H05-sc02 (STR, structural graft) (scFv)", "scFv": "MDIQMTQSPSSLSASVGDRVTIKCQASQSIFSGLAWYQQKPGKAPKLLIYGASKLASGVPSRFSGSGSGTEFTLTISGLQPADFATYYCQSYYYSSSSSDGSYAFGGGTKLTVLGGGGGSGGGGSGGGGSGGGGSEVQLVESGGGLVQPGGSLRLSCKASGIDFNNYGIGWVRQAPGKGLEWITYIYPGFAITNFANSVKGRFTISSDNSKNTVYLQMNSLRAEDTAVYYCARDPVYATSSGYFDLWGQGTLVTVSS", "notes": "also called 16-22-H5-sc02; 16-22-H04-sc02 [sic]"}, "B2": {"name": "humanized scFv 16-22-H05-sc04 (CDR/STR) (scFv)", "scFv": "B1 scFv with K23T", "notes": "also called 16-22-05-sc04"}, "B3": {"name": "recombinant human TNFβ (ligand, UniProt P01374 35-205, looked up)", "chain": "LPGVGLTPSAAQTARQHPKMHLAHSTLKPAAHLIGDPSKQNSLLWRANTDRAFLQDGFSLSNNSLLVPTSGIYFVYSQVVFSGKAYSPKATSSPLYLAHEVQLFSSQYPFHVPLLSSQKMVYPGLQEPWLHSMYHGAAFQLTQGDQLSTHTDGIPHLVLSPSTVFFGAFAL"}}, "key": {"[1]": {"biological_target": "T1, recombinant human TNFα (human, UniProt P01375 77-233)", "T1 construct": "also called tumor necrosis factor alpha; TNFαtrimer", "T1 sequence (P01375 77-233 limits assumed)": "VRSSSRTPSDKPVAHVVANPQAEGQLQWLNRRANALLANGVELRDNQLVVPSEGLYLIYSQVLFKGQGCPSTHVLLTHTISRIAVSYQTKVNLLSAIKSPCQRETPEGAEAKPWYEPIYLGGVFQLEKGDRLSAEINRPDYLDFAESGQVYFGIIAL", "experiment": "inhibition ELISA, blocking of biotinylated TNFα binding to coated TNFRI-Fc", "description": "For the first inhibition ELISA, the extracellular domain of TNFRI fused to the Fc region of human IgG (R&D Systems, Cat. No. 372-RI) was coated on a 96-well Maxisorp ELISA at a concentration of 0.5 pg/ml. […] All subsequent steps were identical for both assays."}, "[2]": {"biological_target": "T1, recombinant human TNFα", "experiment": "cell-based or functional assay"}, "[3]": {"biological_target": "B2", "experiment": "competition ELISA: unlabeled TNFβ against biotinylated TNFα on coated scFv", "method": "(§1) For this purpose, the scFvs were coated on a 96-well Maxisorp ELISA plate at a concentration of 1 pg/ml. […] To control precision of the response, the dose-response curves were analyzed in duplicate."}, "[4]": {"biological_target": "B1", "experiment": "competition ELISA: unlabeled TNFβ against biotinylated TNFα on coated scFv", "method": "as §1"}}, "note": "Residue numbers refer to the chain shown, from its start."}
{"binder": "B1", "values": [{"measurement": "rel. IC50 (IC50 Infliximab/IC50 scFv, ng/mL)", "setting": "[1]", "result": 3.5, "unit": "ratio"}, {"measurement": "rel. IC90 (IC90 Infliximab/IC90 scFv, ng/mL)", "setting": "[1]", "result": 2.4, "unit": "ratio"}, {"measurement": "L929 assay, rel. IC50", "setting": "[2]", "result": "13.1 ratio IC50 Infliximab (ng/ml)/IC50 scFv (ng/mL)"}, {"measurement": "L929 assay, rel. IC90", "setting": "[2]", "result": "12.6 ratio IC90 Infliximab (ng/ml)/IC90 scFv (ng/mL)"}]}
{"binder": "B2", "values": [{"measurement": "rel. IC50 (IC50 Infliximab/IC50 scFv, ng/mL)", "setting": "[1]", "result": 2.8, "unit": "ratio"}, {"measurement": "rel. IC90 (IC90 Infliximab/IC90 scFv, ng/mL)", "setting": "[1]", "result": 2.1, "unit": "ratio"}, {"measurement": "L929 assay, rel. IC50", "setting": "[2]", "result": "14.6 ratio IC50 Infliximab (ng/ml)/IC50 scFv (ng/mL)"}, {"measurement": "L929 assay, rel. IC90", "setting": "[2]", "result": "13.1 ratio IC90 Infliximab (ng/ml)/IC90 scFv (ng/mL)"}]}
{"binder": "B3", "values": [{"measurement": "IC50", "setting": "[3]", "result": "> 1.25", "unit": "ng/mL"}, {"measurement": "IC50", "setting": "[4]", "result": "> 1.25", "unit": "ng/mL"}]}
